The labels stand for the following.
B1: Ribonuclease HI, P0A7Y4 (parent)
chain: MLKQVEIFTDGSCLGNPGPGGYGAILRYRGREKTFSAGYTRTTNNRMELMAAIVALEALKEHCEVILSTDSQYVRQGITQWIHNWKKRGWKTADKKPVKNVDLWQRLDAALGQHQIKWEWVKGHAGHPENERCDELARAAAMNPTLEDTGYQVEV

Variants of B1 are the subject of the data set. The conditions noted are these: Escherichia coli (strain K12), CD, reversible: yes, structure 2RN2, whole UniProt chain shown.
Where [1] appears, read: pH 3, 49.8 °C, Thermal, glycine-HCl 10 mM.
The mark [2] stands for this setting: pH 3, Thermal, glycine-HCl 10 mM.
The mark [3] stands for this setting: pH 5.5, 25 °C, Urea, Sodium acetate 10 mM, NaCl 0.1 M.

These results are taken from FireProtDB (doi:10.1111/j.1432-1033.1992.tb16932.x).

Regarding S68L, the “ddG of mutation (higher = less stable)” value under setting [1] stood at 0.5 kcal/mol. Also, under setting [2], the midpoint of thermal melting (Tm) (usually the temperature at the midpoint of the melting transition) was 48.2 °C; the “change of melting temperature, mutant - wild type (higher = more stable)” value (shortened to “change of melting temperature, mutant”) is -1.6 °C; the “unfolding enthalpy (van 't Hoff)” value turned out to be 84 kcal/mol.

Take S68A: the “ddG of mutation (higher = less stable)” value under setting [1] is 0.5 kcal/mol. Also, under setting [2], the midpoint of thermal melting (Tm) was 48.3 °C; the “change of melting temperature, mutant” value was -1.5 °C; the “unfolding enthalpy (van 't Hoff)” value amounted to 89 kcal/mol. Under setting [3], the “ddG of mutation (higher = less stable)” value was -0.19 kcal/mol, the denaturant m value is 2.06 kcal/mol/M, the “denaturant midpoint (higher = more stable)” value (“denaturant midpoint” for short) worked out at 4.8 M and the unfolding free energy came out at 10 kcal/mol.

Take S68G: the “ddG of mutation (higher = less stable)” value under setting [1] amounted to 2.4 kcal/mol. Besides, under setting [2], the Tm was 41.8 °C; the “change of melting temperature, mutant” value was -8 °C; the “unfolding enthalpy (van 't Hoff)” value was 84.7 kcal/mol. Moreover, under setting [3], the “ddG of mutation (higher = less stable)” value is 2.2 kcal/mol, the denaturant m value was found to be 2 kcal/mol/M, the “denaturant midpoint” value came to 4 M and the unfolding free energy worked out at 7.61 kcal/mol.

S68V: the “ddG of mutation (higher = less stable)” value under setting [1] is -0.6 kcal/mol. For the same variant, under setting [2], the melting temperature (Tm) stood at 51.7 °C; the “change of melting temperature, mutant” value stood at 1.9 °C; the “unfolding enthalpy (van 't Hoff)” value worked out at 98.8 kcal/mol. For the same variant, under setting [3], the “ddG of mutation (higher = less stable)” value is -1.29 kcal/mol, the denaturant m value came out at 2.13 kcal/mol/M, the “denaturant midpoint” value stood at 5.1 M and the unfolding free energy turned out to be 11.1 kcal/mol.

For S68T, the “ddG of mutation (higher = less stable)” value under setting [1] was found to be 0.2 kcal/mol. In addition, under setting [2], the Tm came to 49.1 °C; the “change of melting temperature, mutant” value is -0.7 °C; the “unfolding enthalpy (van 't Hoff)” value amounted to 106 kcal/mol. In addition, under setting [3], the “ddG of mutation (higher = less stable)” value is -0.1 kcal/mol, the denaturant m value is 1.95 kcal/mol/M, the “denaturant midpoint” value came to 5 M and the unfolding free energy was 9.91 kcal/mol.
